assay: yeast display, Sf9 membrane polyspecificity reagent, FACS + sequencing; frameworks hold sequencing errors
Procedure, shortened: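 Galactose induction of a Saccharomyces cerevisiae BJ5465 synthetic nanobody display library ran 36–48 hours. The cells were then stained for 1 hour at 4 °C with 10% biotinylated, detergent-solubilized Sf9 membrane reagent, pulled down on streptavidin microbeads and FACS-sorted into low and high (top ~1%) gates on expression and reagent-binding fluorescence. Labels for polyreactivity follow the gate of origin.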

Row | Sequence | polyreactivity (PSR sort gate)
1 | QVQLVESGGGLVQAGGSLRLSCAASGNTFGENAMGWYRQAPGKERELVAAISNGGTTNYADSVKGRFTISRDNAKNTVYLQMNSLKPEDTAVYYCNAKFGISQPGHSGLLKMDYWGQGTQVTVSS | low polyreactivity
2 | QVQLVESGGGLVQAGGSLRLSCAASGNTFGENAMGWYRQAPWKERELVAAISNGGTTNYADSVKGRFTISRDNAKNTVYLQMNSLKPEDTAVYYSNAKFGISQPGHSGLLKMDYWGQGTQVTVSS | low polyreactivity
3 | QVQLVESGGGLVQAGGSLRLSCAASGNTFGFNTMGWYRQAPGKERELVAAISKSGTRTFYADSVKGRFTISRDNAKNTVYLQMNSLKPEDTAVYYCAAVAKGGNWPAQGGGHDYWGQGTQVTVSS | high polyreactivity
4 | QVQLVESGGGLVQAGGSLRLSCAASGNTFGIYAMGWYRQAPGKERELVAAISSGTSTNYADSVKGRFTISRDNAKNTVYLQMNSMKPEDTAVYYCNADDQYQDVREDYWGQGTQVTVSS | low polyreactivity
5 | QVQLVESGGGLVQAGGSLRLSCAASGNTFGRNAMGWYIQAPGKERELVAAIDIGADTNYADSVKGRFTISRDNAKNTVYLQMNSLKPEDTAVYYCAASYRYVRWKWGYNYWGQGTQVTVSS | high polyreactivity
6 | QVQLVESGGGLVQAGGSLRLSCAASGNTFGWNAMGWSRQAPGKERELVAAIDIGADTNYADSVKGRFTISRDNAKNTVYLQMNSLKPEDTAVYYCAASYRYVRWKWGYNYWGQGTQVTVSS | high polyreactivity
7 | QVQLVESGGGLVQAGGSLRLSCAASGNTFGYYAMGWYRQAPGKERELVAAINFGGDTSYADSVKGRFTISRDNAKNTVYLQMNSLKPEDTAVYYCAADGSYWIYADGDYWGQGTQVTVSS | low polyreactivity
8 | QVQLVESGGGLVQAGGSLRLSCAASGNTFHTNAMGWYRQAPGKERELVAAITGGGSTYYADSVKGRFTISRDNAKNTVYLQMNSLKPEDTAVYYCNTDVPYGLDVSDTIDYYYWGQGTQVTVSS | low polyreactivity
9 | QVQLVESGGGLVQAGGSLRLSCAASGNTFKYYAMGWYRQAPGKERELVAAITWNGARTYYADSVKGRFTISRDNAKNTVYLQMNSLKPEDTAVYYCNARQGYRFDYWGQGTQVTVSS | high polyreactivity
10 | QVQLVESGGGLVQAGGSLRLSCAASGNTFNAFNAMGWYRQAPGKERELVAAISRRGGSTYYADSVKGRFTISRDNAKNTVYLQMNSLKPEDTAVYYGAAYYSRSKYDYWGQGTQVTVSS | high polyreactivity
11 | QVQLVESGGGLVQAGGSLRLSCAASGNTFPFNAMGWYRQAPGKERELVAAISRGGSTYYADSVKGRFTISRDNAKNTVYLQMNSLKPDDTAVYYCAAGYRRQGYGGYDYWGQGTQVTVSS | high polyreactivity
12 | QVQLVESGGGLVQAGGSLRLSCAASGNTFPVYAMGWYRQASGKERELVATITSGGSTNYADSVKGRFTISRDNAKNTVYLQMNSLKPEDTAVYDCARRAVYAKRRYDYWGQGTQVTVSS | low polyreactivity
13 | QVQLVESGGGLVQAGGSLRLSCAASGNTFQYYALGWYRQAPGKERELVAAITTGGSKNFADSVKGRFTISRDNAKNTVYLQMNSLKPEDTAVYYCAARGGVSKRISDYWGQGTQVTVSS | low polyreactivity
14 | QVQLVESGGGLVQAGGSLRLSCAASGNTFRDYAMGWYRQAPGKERELVAAITSSGARTYYADSVKGRFTISRDNAKNTVYLQMNSLKPEDTAVYYCAADWSGYYTYDYWGQGTQVTVSS | low polyreactivity
15 | QVQLVESGGGLVQAGGSLRLSCAASGNTFRGYAMGWSRQAPGKEMELVAAITSGGRTYYADSVKGRFTISRDNAKNTVYLQMNSLKPEDTAVYYCNARQFAGDEWGQGTLVTVSS | high polyreactivity
16 | QVQLVESGGGLVQAGGSLRLSCAASGNTFRSYVMGWYRQAPGKERELVADISSGDGTNYADSVKGRFTISRDNAKNTVYLQMNSLKPEDTAVYYCAKDVYNFRTTHSYFTGYDSWGQGTQVTVSS | low polyreactivity

Source: the nanobody polyreactivity screen of Harvey et al. (2022)
